From patent US20020076719A1 (ROCKEFELLER UNIVERSITY, published 2002) come the findings set out here.

One test has as its target T1, untagged mTRF2 (mouse, UniProt O35144 46-541, limits assumed).
T1 construct: In vitro translated and 35S-methionine labelled; also called mouse TRF2
T1 sequence: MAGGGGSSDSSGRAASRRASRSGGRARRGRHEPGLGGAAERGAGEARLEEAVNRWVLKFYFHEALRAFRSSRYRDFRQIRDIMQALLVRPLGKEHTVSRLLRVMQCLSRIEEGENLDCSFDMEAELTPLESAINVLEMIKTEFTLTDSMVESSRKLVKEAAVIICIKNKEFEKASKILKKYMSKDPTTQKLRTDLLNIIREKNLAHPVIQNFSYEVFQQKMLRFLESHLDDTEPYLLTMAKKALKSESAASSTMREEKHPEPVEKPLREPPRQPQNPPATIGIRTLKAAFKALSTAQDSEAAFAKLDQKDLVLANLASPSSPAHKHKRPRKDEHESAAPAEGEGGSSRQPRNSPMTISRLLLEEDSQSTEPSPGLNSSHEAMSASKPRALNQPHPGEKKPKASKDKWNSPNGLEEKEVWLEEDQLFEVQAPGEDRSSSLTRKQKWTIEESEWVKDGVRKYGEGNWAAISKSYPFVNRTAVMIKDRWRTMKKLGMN
Description: co-immunoprecipitation of in vitro translated 35S-labelled proteins with M2 anti-FLAG antibody. The source says: (§1) FIG. 12: TRF2 interacts with TRF2 but not with TRF1. […] Values represent an average of three to nine independent transformants. FIG. 12B depicts in vitro translated ³⁵S-methionine labelled TRF1 and TRF2 proteins with or without an N-terminal FLAG tag (indicated above the lanes) were immunoprecipitated using the M2 anti-FLAG antibodies and analyzed by autoradiography.
Co-immunoprecipitation experiments. The human and mouse TRF1 constructs used were previously described [Chong et al., Science, 270:1663-1667 (1995); Broccoli et al., Hum. Mol. Genetics, 6:69-76 (1997); Bianchi et al., supra (1997)]. The FLAG-tagged mTRF2 and untagged mTRF2 were translated from cDNAs described above. ³⁵S-methionine labelled proteins [Chong et al., Science, 270:1663-1667 (1995); Broccoli et al., Hum. Mol. Genetics, 6:69-76 (1997); Bianchi et al., supra, (1997)] were immunoprecipitated using the M2 anti-FLAG antibody in buffer D (20 mM Hepes-KOH pH 7.9, 100 mM KCl, 20% glycerol, 0.2 mM EDTA, 0.2 mM EGTA, 0.1 % NP40, 0.1 % Triton-X-100, 0.5 mM DTT, 0.5 mM PMSF) followed by four washes in buffer D with detergents and two washes in buffer D without detergent. Pellets were suspended in SDS/PAGE loading buffer and resolved on a 9% SDS-polyacrylamide gel.

The next test addresses T2, FLAG-tagged mTRF2ΔN-49 (mouse, UniProt O35144 94-541).
T2 construct: also called mTRF2 DN-49; deletion mutant mTRF2ΔN-49
T2 sequence: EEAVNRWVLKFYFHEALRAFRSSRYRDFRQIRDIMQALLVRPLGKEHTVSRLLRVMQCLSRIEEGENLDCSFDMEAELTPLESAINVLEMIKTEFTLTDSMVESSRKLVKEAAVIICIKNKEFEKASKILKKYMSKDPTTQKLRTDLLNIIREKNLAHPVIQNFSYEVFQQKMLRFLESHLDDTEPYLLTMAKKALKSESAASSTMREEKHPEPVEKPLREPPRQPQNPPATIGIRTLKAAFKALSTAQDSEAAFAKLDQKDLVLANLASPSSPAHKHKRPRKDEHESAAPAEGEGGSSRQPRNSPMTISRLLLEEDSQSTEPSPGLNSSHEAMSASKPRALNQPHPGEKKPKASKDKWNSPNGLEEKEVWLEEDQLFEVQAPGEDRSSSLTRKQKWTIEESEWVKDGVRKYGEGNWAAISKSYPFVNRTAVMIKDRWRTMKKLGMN
Briefly: gel-shift assay on extracts of transfected HeLa cells; level of the hTRF1 homodimer complex unaltered. The source says: This new activity was present in excess over the endogenous hTRF1 activity and could be super-shifted with the FLAG antibody (FIG. 10B, lane 4). The mTRF2ΔN-49 mutant protein was also found to localize to telomeric loci in transfected cells (see below). […] Acids Res., 24:1294-303 (1996)].
Absence of heterodimer formation was further corroborated by co-immunoprecipitation of in vitro translation products (FIG. 12B). […] The lack of heterodimerization is also consistent with the gel-shift assays on extracts from cells over-expressing mTRF2ΔN-49 (FIG. 10B). […] In similar experiments executed with FLAG-tagged hTRF 1, heterodimerization between the endogenous TRF1 and the transfected protein is consistently detected.

Test [1] addresses T3, hTRF2 dimerization domain (amino acid 45 to amino acid 246), LexA and GAD fusion proteins (human, UniProt Q15554 87-288).
T3 construct: Built both as a LexA and as a GAD fusion; also called dimerization domain of hTRF2; not shown: two-hybrid fusion partner, LexA or GAD depending on the construct (vectors pBTM116 and pACT2)
T3 sequence: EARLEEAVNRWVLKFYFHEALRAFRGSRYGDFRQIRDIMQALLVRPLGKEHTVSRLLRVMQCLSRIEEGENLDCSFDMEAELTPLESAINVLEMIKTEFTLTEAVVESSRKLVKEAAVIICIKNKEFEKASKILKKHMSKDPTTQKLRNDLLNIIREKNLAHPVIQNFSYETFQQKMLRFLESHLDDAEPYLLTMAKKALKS
Description: yeast 2-hybrid, b-galactosidase activity.
Description: as §1
Next the yeast 2-hybrid assay was used to determine whether the dimerization domains of TRF1 and TRF2 can interact. In a large number of trials, no convincing interactions between these proteins in two settings were detected (FIG. 12A). No activation occurred when the dimerization domain of TRF2 was probed for interactions with full length TRF1. In addition, no significant interactions were observed between fusion proteins containing the isolated TRF1 and TRF2 dimerization domains. The weak b-galactosidase activity detected with these proteins is probably due to the inherent slight transactivation activity of the TRF1 dimerization domain (FIG. 12A) which has been noted previously [Bianchi et al., supra, (1997)].

B1: FLAG-mTRF1 (mouse TRF) (other, UniProt P70371 2-421, looked up)
chain: AETVSSAARDAPSREGWTDSDSPEQEEVGDDAELLQCQLQLGTPREMENAELVAEVEAVAAGWMLDFLCLSLCRAFRDGRSEDFRRTRDSAEAIIHGLHRLTAYQLKTVYICQFLTRVASGKALDAQFEVDERITPLESALMIWNSIEKEHDKLHDEIKNLIKIQAVAVCMEIGSFKEAEEVFERIFGDPEFYTPLERKLLKIISQKDVFHSLFQHFSYSCMMEKIQSYVGDVLSEKSSTFLMKAATKVVENEKARTQASKDRPDATNTGMDTEVGLNKEKSVNGQQSTETEPLVDTVSSIRSHKNALSQLKHRRAPSDFSRNEARTGTLQCETTMERNRRTSGRNRLCVSENQPDTDDKSGRRKRQTWLWEEDRILKCGVKKYGEGNWAKILSHYKFNNRTSVMLKDRWRTMKRLKLIS
notes: The co-IP construct is 'previously described'; also called FLAG tagged mouse TRF; not shown: FLAG tag
Turning to B1, the binding result in the test with untagged mTRF2 is recorded as “no binding”.

B2: hTRF1 (endogenous, HeLa cells) (other)
chain: AEDVSSAAPSPRRCADGRDADPTEEQMAETERNDEEQFECQELLECQVQVGAPEEEEEEEEDAGLVAEAEAVAAGWMLDFLCLSLCRAFRDGRSEDFRRTRNSAEAIIHGLSSLTACQLRTIYICQFLTRIAAGKTLDAQFENDERITPLESALMIWGSIEKEHDKLHEEIQNLIKIQAIAVCMENGNFKEAEEVFERIFGDPNSHMPFKSKLLMIISQKDTFHSFFQHFSYNHMMEKIKSYVNYVLSEKSSTFLMKAAAKVVESKRTRTITSQDKPSGNDVEMETEANLDTRKSVSDKQSAVTESSEGTVSLLRSHKNLFLSKLQHGTQQQDLNKKERRVGTPQSTKKKKESRRATESRIPVSKSQPVTPEKHRARKRQAWLWEEDKNLRSGVRKYGEGNWSKILLHYKFNNRTSVMLKDRWRTMKKLKLISSDSED
notes: also called endogenous TRF1; human TRF1
In the case of B2, in the test with FLAG-tagged mTRF2ΔN-49, the binding result is listed as “no binding”.

B3: hTRF1 dimerization domain, LexA and GAD fusion proteins (other)
chain: LVAEAEAVAAGWMLDFLCLSLCRAFRDGRSEDFRRTRNSAEAIIHGLSSLTACQLRTIYICQFLTRIAAGKTLDAQFENDERITPLESALMIWGSIEKEHDKLHEEIQNLIKIQAIAVCMENGNFKEAEEVFERIFGDPNSHMPFKSKLLMIISQKDTFHSFFQHFSYNHMMEKIKSYVNYVLSEKSSTFLMKAAAKV
notes: also called isolated TRF1 dimerization domain; homodimerization domain of TRF1; not shown: two-hybrid fusion partner, LexA or GAD
Turning to B3, the binding result in test [1] is on record as “no binding”.
